target: concanavalin A; experiment: SPR

| Substance | Kd |
| --- | --- |
| bovine ribonuclease B (native, carrying Man5-9 N-glycans) (from UniProt P61823 27-150) (natural protein) | 1200 nM |
| monofluoro-Man3GlcNAc2 glycoform of RNase (glycoprotein 2) (from UniProt P61823 27-150) (natural protein) | 2400 nM |
| Man3GlcNAc2-RNase (glycoprotein 3) (from UniProt P61823 27-150) (natural protein) | 2500 nM |
